# According to patent publication US20030035790A1, “Combination therapy for the prevention or treatment of cancer, inflammatory disorders or infectious diseases in a subject” (priority 1999, published 2003):
# B1: GM-CSF: murine granulocyte macrophage colony-stimulating factor added to cultures (protein, UniProt P01587 18-141, looked up)
# Granulocyte-macrophage …: APTRSPITVTRPWKHVEAIKEALNLLDDMPVTLNEEVEVVSNEFSFKKLTCVQTRLKIFEQGLRGNFTKLKGALNMTASYYQTYCPPTPETDCETQVTTYADFIDSLKTFLTDIPFECKKPGQK
# Assays:
# [1] = tested on: Fr.II cells derived from the bone marrow of MCA26 tumor-bearing mice; assay: In vitro differentiation of bone marrow Fr.II myeloid progenitor cells, flow cytometry; format: cell-based, mouse; settings: 10 days GM-CSF, then additional 24 hours
# Procedure: FIG. 19. Immunostaining of DCs generated from different culture conditions. BM Fr.II cells derived from naive and MCA-26 tumor bearing mice were cultured with mGM-CSF for 10 days. Non-adherent cells were harvested and cultured in the presence of mGM-CSF or mGM-CSF and anti-CD40 mAb ([…], FGK45 clone) for additional 24 hours. Non-adherent cells were stained and analyzed for the expression of various surface molecules by flow cytometry. Mean±SD is obtained from three independent experiments.
# The ability of Fr.II cells derived from the bone marrow of MCA26 tumor-bearing mice to differentiate into dendritic cells when cultured under various conditions was assessed. Fr.II cells from derived the bone marrow of tumor-free or MCA26 tumor-bearing mice were cultured for 10 days with GM-CSF. Then non-adherent cells were harvested and cultured for additional 24 hours in the presence of GM-CSF or GM-CSF and anti-CD40 monoclonal antibody. The non-adherent cells were stained and analyzed for the expression of various cell surface molecules by flow cytometry. The expression of CD40, CD80, and MHC class II was relatively low in the tumor-bearing mice. However, after culturing the Fr. II cells with GM-CSF or GM-CSF and anti-CD40 monoclonal antibody, the expression of CD40, CD 80, CD11c and MHC class II by the Fr. […]
# TILs = assay: In vitro GM-CSF stimulation of TILs from large tumor-bearing mice, surface marker staining; format: cell-based, mouse; settings: GM-CSF 100 ng/ml for 5 days
# Procedure: The ability of in vitro stimulation with GM-CSF to promote the differentiation of tumor infiltrating lymphocytes (TILs) into dendritic cells or macrophages by was assessed. The TILs were isolated from large tumor-bearing mice, separated on a lymphocyte separation gradient, cultured with or without GM-CSF (100 ng/ml) for 5 days, and then stained with various cell surface markers. A reproducibly high percentage of Gr-1^+ cells was resent in the TIL population (65.5%), while the percentage of dendritic cells in the TIL population was very low (0.31%); some macrophages (14.9%) were also present in the TIL population.
molecule,measurement,setting,value
B1,"expression of CD40, CD 80, CD11c and MHC class II by the Fr. II cells",[1],significantly increased
same,Gr-1^+ cells in the TIL population,TILs,42.7%
same,dendritic cells in the TIL population,TILs,13.9%
same,macrophages in the TIL population,TILs,24.3%
